Reference: the supplement of paper PMC9112550, “Optimization of the antimicrobial peptide Bac7 by deep mutational scanning” (BMC Biology, 2022)

System: Escherichia coli TOP10
Test: shrunken log2 fold change of peptide-encoding DNA abundance (4.5 h post-induction vs induction); higher = less antimicrobial activity (less host growth inhibition)
Conditions: time post-induction: 4.5 h; library: site-saturation at positions 5, 18, 19, 20
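Note: peptides expressed intracellularly from a pBAD plasmid library in pooled LB shake-flask culture, induced with 0.3% L-arabinose, DNA abundance read by NGS, three biological replicates, DESeq2 with apeglm shrinkage.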

Sequence | shrunken log2 fold change
RRIRMRPPRLPRPRPRPCNFPRP | -0.415
RRIRMRPPRLPRPRPRPCNMPRP | -0.126
RRIRMRPPRLPRPRPRPCNPPRP | -0.0764
RRIRMRPPRLPRPRPRPCQDPRP | 0.227
RRIRMRPPRLPRPRPRPCQMPRP | 0.00911
RRIRMRPPRLPRPRPRPCQSPRP | 0.288
RRIRMRPPRLPRPRPRPCRGPRP | 0.0309
RRIRMRPPRLPRPRPRPCRNPRP | -0.326
RRIRMRPPRLPRPRPRPCRPPRP | 0.00908
RRIRMRPPRLPRPRPRPCSHPRP | -0.167
RRIRMRPPRLPRPRPRPCSVPRP | -0.0402
RRIRMRPPRLPRPRPRPCVRPRP | 0.0764
RRIRMRPPRLPRPRPRPCWDPRP | 0.439
RRIRMRPPRLPRPRPRPCWGPRP | -0.078
RRIRMRPPRLPRPRPRPDAEPRP | 4.37
RRIRMRPPRLPRPRPRPDEMPRP | 0.0155
RRIRMRPPRLPRPRPRPDFCPRP | 0.0837
RRIRMRPPRLPRPRPRPDFEPRP | 0.589
RRIRMRPPRLPRPRPRPDFRPRP | 0.146
RRIRMRPPRLPRPRPRPDGDPRP | 0.0211
RRIRMRPPRLPRPRPRPDGHPRP | 0.0101
RRIRMRPPRLPRPRPRPDGKPRP | 0.322
RRIRMRPPRLPRPRPRPDHNPRP | -0.00429
RRIRMRPPRLPRPRPRPDIYPRP | 0.0832
RRIRMRPPRLPRPRPRPDLEPRP | 1.54

Sequence | shrunken log2 fold change
RRIRMRPPRLPRPRPRPDNQPRP | 0.0198
RRIRMRPPRLPRPRPRPDQRPRP | -0.105
RRIRMRPPRLPRPRPRPDSIPRP | 0.0402
RRIRMRPPRLPRPRPRPDTIPRP | 0.0143
RRIRMRPPRLPRPRPRPDTMPRP | 0.28
RRIRMRPPRLPRPRPRPDVGPRP | 0.0278
RRIRMRPPRLPRPRPRPDWLPRP | -0.0671
RRIRMRPPRLPRPRPRPDWNPRP | -0.0431
RRIRMRPPRLPRPRPRPEACPRP | 3.9
RRIRMRPPRLPRPRPRPEANPRP | 3.83
RRIRMRPPRLPRPRPRPECMPRP | 2.53
RRIRMRPPRLPRPRPRPECSPRP | 0.333
RRIRMRPPRLPRPRPRPEETPRP | 0.0205
RRIRMRPPRLPRPRPRPEHVPRP | 0.0396
RRIRMRPPRLPRPRPRPEIFPRP | 1.27
RRIRMRPPRLPRPRPRPEMMPRP | 0.316
RRIRMRPPRLPRPRPRPEMTPRP | -0.00169
RRIRMRPPRLPRPRPRPEPKPRP | 2.51
RRIRMRPPRLPRPRPRPEQAPRP | 4.07
RRIRMRPPRLPRPRPRPEQKPRP | -0.0148
RRIRMRPPRLPRPRPRPERRPRP | 0.689
RRIRMRPPRLPRPRPRPERTPRP | 0.00114
RRIRMRPPRLPRPRPRPETSPRP | 0.163
RRIRMRPPRLPRPRPRPEVLPRP | -0.0436
RRIRMRPPRLPRPRPRPEVYPRP | -0.0346

Sequence | shrunken log2 fold change
RRIRMRPPRLPRPRPRPEWFPRP | 0.0369
RRIRMRPPRLPRPRPRPEWMPRP | 0.156
RRIRMRPPRLPRPRPRPEYKPRP | 0.359
RRIRMRPPRLPRPRPRPEYPPRP | 0.0399
RRIRMRPPRLPRPRPRPEYWPRP | 0.339
RRIRMRPPRLPRPRPRPFAGPRP | -0.0745
RRIRMRPPRLPRPRPRPFAQPRP | 0.0306
RRIRMRPPRLPRPRPRPFAVPRP | -0.109
RRIRMRPPRLPRPRPRPFCHPRP | -0.0129
RRIRMRPPRLPRPRPRPFDDPRP | 0.243
RRIRMRPPRLPRPRPRPFELPRP | 0.0846
RRIRMRPPRLPRPRPRPFEPPRP | 0.174
RRIRMRPPRLPRPRPRPFEVPRP | -0.0748
RRIRMRPPRLPRPRPRPFEWPRP | 0.174
RRIRMRPPRLPRPRPRPFFCPRP | 0.0186
RRIRMRPPRLPRPRPRPFFFPRP | 0.365
RRIRMRPPRLPRPRPRPFFHPRP | -0.243
RRIRMRPPRLPRPRPRPFGLPRP | -0.0107
RRIRMRPPRLPRPRPRPFGYPRP | 0.067
RRIRMRPPRLPRPRPRPFHQPRP | -0.0752
RRIRMRPPRLPRPRPRPFIHPRP | -0.57
RRIRMRPPRLPRPRPRPFIKPRP | -0.432
RRIRMRPPRLPRPRPRPFKRPRP | 0.0293
RRIRMRPPRLPRPRPRPFLNPRP | -0.247
RRIRMRPPRLPRPRPRPFMAPRP | -0.236

Sequence | shrunken log2 fold change
RRIRMRPPRLPRPRPRPFMGPRP | -0.0409
RRIRMRPPRLPRPRPRPFMQPRP | -0.00899
RRIRMRPPRLPRPRPRPFPAPRP | 0.426
RRIRMRPPRLPRPRPRPFPFPRP | -0.356
RRIRMRPPRLPRPRPRPFPQPRP | 0.103
RRIRMRPPRLPRPRPRPFRFPRP | 0.089
RRIRMRPPRLPRPRPRPFSRPRP | 0.0409
RRIRMRPPRLPRPRPRPFTGPRP | 0.0078
RRIRMRPPRLPRPRPRPFVCPRP | 0.137
RRIRMRPPRLPRPRPRPFVKPRP | -1.03
RRIRMRPPRLPRPRPRPFWHPRP | -0.00226
RRIRMRPPRLPRPRPRPFWIPRP | 0.00154
RRIRMRPPRLPRPRPRPFYDPRP | -0.12
RRIRMRPPRLPRPRPRPFYIPRP | -0.31
RRIRMRPPRLPRPRPRPGATPRP | 1.38
RRIRMRPPRLPRPRPRPGCVPRP | 0.967
RRIRMRPPRLPRPRPRPGFIPRP | 0.192
RRIRMRPPRLPRPRPRPGFKPRP | 0.46
RRIRMRPPRLPRPRPRPGGAPRP | 1.17
RRIRMRPPRLPRPRPRPGIAPRP | 1.11
RRIRMRPPRLPRPRPRPGIYPRP | -0.075
RRIRMRPPRLPRPRPRPGKCPRP | -0.0233
RRIRMRPPRLPRPRPRPGKPPRP | 0.0496
RRIRMRPPRLPRPRPRPGKQPRP | -0.00189
RRIRMRPPRLPRPRPRPGLAPRP | 1.51

Sequence | shrunken log2 fold change
RRIRMRPPRLPRPRPRPGLIPRP | 0.133
RRIRMRPPRLPRPRPRPGMPPRP | 0.522
RRIRMRPPRLPRPRPRPGNRPRP | 0.0934
RRIRMRPPRLPRPRPRPGPFPRP | 0.222
RRIRMRPPRLPRPRPRPGPLPRP | 0.532
RRIRMRPPRLPRPRPRPGQLPRP | 0.0406
RRIRMRPPRLPRPRPRPGRAPRP | 1.27
RRIRMRPPRLPRPRPRPGSAPRP | 1.4
RRIRMRPPRLPRPRPRPGTHPRP | 0.056
RRIRMRPPRLPRPRPRPGTLPRP | -0.02
RRIRMRPPRLPRPRPRPGWAPRP | 0.965
RRIRMRPPRLPRPRPRPGWFPRP | 1.16
RRIRMRPPRLPRPRPRPGWPPRP | 0.595
RRIRMRPPRLPRPRPRPGYEPRP | 0.247
RRIRMRPPRLPRPRPRPHAYPRP | 0.0623
RRIRMRPPRLPRPRPRPHEFPRP | 0.224
RRIRMRPPRLPRPRPRPHFEPRP | -0.0874
RRIRMRPPRLPRPRPRPHHGPRP | -0.762
RRIRMRPPRLPRPRPRPHHKPRP | -0.316
RRIRMRPPRLPRPRPRPHKEPRP | 0.0586
RRIRMRPPRLPRPRPRPHKPPRP | 0.0226
RRIRMRPPRLPRPRPRPHLCPRP | -0.117
RRIRMRPPRLPRPRPRPHNEPRP | -0.356
RRIRMRPPRLPRPRPRPHRGPRP | 0.0388
RRIRMRPPRLPRPRPRPHSPPRP | -0.114

Sequence | shrunken log2 fold change
RRIRMRPPRLPRPRPRPHSVPRP | 0.0764
RRIRMRPPRLPRPRPRPHTEPRP | 0.191
RRIRMRPPRLPRPRPRPHTMPRP | 0.124
RRIRMRPPRLPRPRPRPHVEPRP | 0.00707
RRIRMRPPRLPRPRPRPHVKPRP | -0.282
RRIRMRPPRLPRPRPRPHVTPRP | -0.441
RRIRMRPPRLPRPRPRPHWNPRP | -0.271
RRIRMRPPRLPRPRPRPIAFPRP | -0.0147
RRIRMRPPRLPRPRPRPICMPRP | 0.024
RRIRMRPPRLPRPRPRPICPPRP | -0.123
RRIRMRPPRLPRPRPRPIDAPRP | 0.616
RRIRMRPPRLPRPRPRPIEHPRP | -0.0129
RRIRMRPPRLPRPRPRPIEQPRP | 0.0161
RRIRMRPPRLPRPRPRPIGCPRP | 0.176
RRIRMRPPRLPRPRPRPIGRPRP | -0.00776
RRIRMRPPRLPRPRPRPIHNPRP | -0.58
RRIRMRPPRLPRPRPRPIKCPRP | -0.0724
RRIRMRPPRLPRPRPRPILAPRP | 0.261
RRIRMRPPRLPRPRPRPINCPRP | -0.0244
RRIRMRPPRLPRPRPRPINEPRP | -0.0839
RRIRMRPPRLPRPRPRPINHPRP | -0.173
RRIRMRPPRLPRPRPRPINIPRP | -0.0393
RRIRMRPPRLPRPRPRPIPAPRP | 0.788
RRIRMRPPRLPRPRPRPIPFPRP | 0.146
RRIRMRPPRLPRPRPRPIPVPRP | 0.0294
